# Results from the supplement of paper PMC9170038.
# System: MS2 coat protein
# Experiment: apparent KD of MS2 coat protein; designed switch direction (-1 OFF switch, 1 ON switch): -1; higher = weaker reporter binding
# How it was run: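 Apparent KD, taken as the median over clusters for each design, was obtained by curve-fitting normalised cluster fluorescence. Designed RNA switches had been transcribed on Illumina chips by stalled E. coli RNA polymerase and titrated with SNAP-549-labelled MS2 coat protein, doubling from 0.7 or 1.5 nM to 3 µM.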
# [1] = Eterna round: R95, input ligand: microRNA oligo, concentration not stated
# [2] = input ligand: microRNA oligo, concentration not stated
Sequence,"apparent KD of MS2 coat protein (Eterna round: R95, input ligand: FMN 200 uM)",apparent KD of MS2 coat protein [1],"apparent KD of MS2 coat protein (Eterna round: R95, input ligand: none)",apparent KD of MS2 coat protein (input ligand: FMN 200 uM),apparent KD of MS2 coat protein (input ligand: none),apparent KD of MS2 coat protein [2]
UGAAAGGUAGGAUAUACGAAGAAAAAGGGUAGAAUAAUAACACAUGAGGAUCACCCAUGUAGAAGGACCAAAGU [Mat - Exclusion 2 - Mod of my Tesla design - D10] (puzzle: Exclusion 2),51.7 nM,26.2 nM,24.6 nM,,,
"UGAAAGUGAGGAUAUCCAAUAUAUGACAUGAGGAUCACCCAUGUUUCCACUCGUACCUCCGGAGAAGGCACAAAGU [Ex5 #58] (Eterna round: R97, puzzle: Exclusion 5)",,,,26.2 nM,28.8 nM,
"UGAAGUUGUGUGAGGAUAUUUGAAGUGAAAGCUUCGGAGAAGGCACAUGAGGAUCACCCAUGUAAGCGGCUUCG [-25.1, -23 kcal, A 26%, 3bis-3] (Eterna round: R97, puzzle: Brourd's mod of Exclusion 4)",,,,18.4 nM,15 nM,
"UGACAGCUAGGAUAUGGGCGUGCUUACAUGAGGAUCACCCAUGUGGUAUCUGAGUAGCACCCAGAAGGAGCCCGCG [Eternabot (L2) Solution 87] (Eterna round: R97, puzzle: Exclusion 5)",,,,1350 nM,656 nM,
"UGAGACUGAGGAUAUACUAGCCCAUAAAGUGGGUAGUGGGUACAUGAGGAUCACCCAUGUAGAAGGCAGCCUCG [Omei Repeat Sequence v2] (Eterna round: R97, puzzle: Exclusion 2)",,,,251 nM,29.4 nM,
"UGAGCAUGAGGAUAUACAAGGCGACCGUGAGGUCGAGGGUUACAUGAGGAUCACCCAUGUAGAAGGCAUGUUCU [jl-ex2-4.10] (Eterna round: R97, puzzle: Exclusion 2)",,,,514 nM,48.3 nM,
"UGAGCUCUAGUAGGAUAUGUCGGAUAUGUUGUUGAGGUUCACCCAACGACGUCAAUGACAGAAGGACAGAAGGACUCCUGCUCU [pwkr exNG2 2xFMN 1xF5.7] (Eterna round: R96, puzzle: Exclusion NG 2)",,,,111 nM,315 nM,77 nM
"UGAGCUUACGUAGGAUAUGAGGAUCACCCAUAGAAGGAUAUCGAAAGAGAAGGUCUGAGGAUUACCCAGAAGGACGUGGGCUCU [pwkr exNG2 2xF5 2xFMN.12] (Eterna round: R96, puzzle: Exclusion NG 2)",,,,732 nM,151 nM,122 nM
"UGAGCUUCAGGAUAUACAAGGCGACCGUGAGGUCGAAGGUUACAUGAGGAUCACCCAUGUAGAAGGGAAGUUCU [Mat - Exclusion 2 - JL Mod - D13] (Eterna round: R97, puzzle: Exclusion 2)",,,,36.7 nM,21.6 nM,
"UGAGCUUGAGGAUAUACAAGGCGACCGUGAGGUCGAGGGUUACAUGAGGAUCACCCAUGUAGAAGGCAAGUUCU [Mat - Exclusion 2 - JL Mod - D10] (Eterna round: R97, puzzle: Exclusion 2)",,,,460 nM,54.3 nM,
"UGAGUACUGCGAGGAUAUACAUGAGGAUCACCCAUGUAAUAGUGUGAGGCUUUGCCUCACACAAUGUAGAAGGCGCAGUACUCU [Mat - Exclusion NG 2 - Mod of JL - D5] (Eterna round: R96, puzzle: Exclusion NG 2)",,,,15.5 nM,11.8 nM,9.63 nM
"UGAGUGCUGCGAGGAUAUACAUGAGGAUCACCCAUGUAAGCCUGUGAGGCUUUGCCUCACAGGAUGUAGAAGGCGCAGUACUCU [JL ENG2 1.17] (Eterna round: R96, puzzle: Exclusion NG 2)",,,,12.5 nM,13.5 nM,9.19 nM
"UGAGUGCUGCGAGGAUAUACAUGAGGAUCACCCAUGUAAUCGUGUGAGCCAAAGGCUCACACGAAGUAGAAGGCGCAGUACUCU [Mat - Exclusion NG 2 - Mod of JL - D25] (Eterna round: R96, puzzle: Exclusion NG 2)",,,,12.5 nM,15.2 nM,11.1 nM
"UGAGUGCUGCGAGGAUAUACAUGAGGAUCACCCAUGUGGAUGUCUGAGGCUUUGCCUCAGACAAUGUAGAAGGCGCAGUACUCU [JL ENG2 1.21] (Eterna round: R96, puzzle: Exclusion NG 2)",,,,96.4 nM,21 nM,14.2 nM
"UGAGUGCUGCGAGGAUAUACAUGAGGAUCACCCAUGUGGUGGUGUGAGGCUUUGCCUCACACCAUGUAGAAGGCGCAGUACUCU [JL ENG2 1.08] (Eterna round: R96, puzzle: Exclusion NG 2)",,,,237 nM,37.2 nM,33.3 nM
"UGAGUGCUGCGAGGAUAUACAUGAGGAUCACCCAUGUUUAGGUGUGAGGCUUUGCCUCACACCAUGUAGAAGGCGCAGUACUCU [JL ENG2 1.07] (Eterna round: R96, puzzle: Exclusion NG 2)",,,,16.8 nM,12.8 nM,8.96 nM
"UGAGUGCUGCGAGGAUAUACAUGAGGAUCACCCAUGUUUUCGUGUGAGGCUUUGCCUCACACGAAGUAGAAGGCGCAGUACUCU [JL ENG2 1.12] (Eterna round: R96, puzzle: Exclusion NG 2)",,,,10.8 nM,12.3 nM,11.8 nM

Sequence,"apparent KD of MS2 coat protein (Eterna round: R95, input ligand: FMN 200 uM)",apparent KD of MS2 coat protein [1],"apparent KD of MS2 coat protein (Eterna round: R95, input ligand: none)",apparent KD of MS2 coat protein (input ligand: FMN 200 uM),apparent KD of MS2 coat protein (input ligand: none),apparent KD of MS2 coat protein [2]
"UGAGUGCUGCGAGGAUAUACAUGAGGAUCACCCAUGUUUUCGUGUGAGGCUUUGCCUCACACGAUGUAGAAGGCGCAGUACUCU [JL ENG2 1.13] (Eterna round: R96, puzzle: Exclusion NG 2)",,,,11.5 nM,12.8 nM,8.16 nM
UGAUCAAAUGUCAGGAUAUGCUGUUGGAAACAACAGCAGAAGGGACAUGAGGAUCACCCAUGUCUUGUCGAUUU [Magic-02] (puzzle: Brourd's mod of Exclusion 4),,20.4 nM,,,,
"UGAUCAGACCGAGGAUAUACAUGUAGGACGCACGUGAGUGCGUCCAUUACAUGAGGAUCACCCAUGUAGAAGGCGGUCUGAUCU [JL ENG2 1.93] (Eterna round: R96, puzzle: Exclusion NG 2)",,,,331 nM,157 nM,133 nM
"UGAUCUACUGAGGAUAUUAUAUCACCCGACUGAUAAGAAGGCAGUACAUGAGGAUCACCCAUGUGGGUAGCCAU [Polaris9] (Eterna round: R97, puzzle: Exclusion 6)",,,,50.8 nM,34.7 nM,
"UGAUCUAGCGGAGGAUAUACAUGAGGAUCACCCAUGUAGAUAUCAUGACCGUAGUCGUGUAUCGUGUAGAAGGCCGCUAGAUCU [JL ENG2 3.69] (Eterna round: R96, puzzle: Exclusion NG 2)",,,,,,12.7 nM
"UGAUCUAGCGGAGGAUAUACAUGAGGAUCACCCAUGUAGUAGUGAGUUGCGUACAGCUCACUUGUGUAGAAGGCCGCUAGAUCU [JL ENG2 3.59] (Eterna round: R96, puzzle: Exclusion NG 2)",,,,16.5 nM,12.7 nM,10.1 nM
"UGAUCUAGCGGAGGAUAUACAUGAGGAUCACCCAUGUAUAGGCCAUCUGGUGACAGGUGGAACAUGUAGAAGGCCGCUAGAUCU [JL ENG2 3.81] (Eterna round: R96, puzzle: Exclusion NG 2)",,,,35.9 nM,13.9 nM,9.54 nM
"UGAUCUAGCGGAGGAUAUACAUGAGGAUCACCCAUGUAUAGGCCAUGUGGUGACACGUGGAACAUGUAGAAGGCCGCUAGAUCU [JL ENG2 3.82] (Eterna round: R96, puzzle: Exclusion NG 2)",,,,287 nM,77.6 nM,73.3 nM
UGAUCUUGGGUCAGGAUAUGCUGGUAUUUUUGCCAGCAGAAGGGACAUGAGGAUCACCCAUGUUCUUGGUUUUU [Magic-14] (puzzle: Brourd's mod of Exclusion 4),,10.4 nM,,,,
"UGCAAGCUUAUGAGACCUCACAUGAGGAUCACCCAUGUGCUCGUCUUAUGGGCCGGCCGGCCGUUGGCCGGCCGGCC [-45.5, -68.5 kcal, A 16%] (Eterna round: R97, puzzle: Sensor, turn-off variant 1)",,,,16.6 nM,16.5 nM,
"UGCAAUCUUAUGAUAUCUCACAUGAGGAUCACCCAUGUGCUCGUCUUAUGUUCUGUUUUGCUGUUGUCCGGCCGGCC [1st try] (Eterna round: R97, puzzle: Sensor, turn-off variant 1)",,,,27.5 nM,31.3 nM,
"UGCAGACGAGGAUAUAAAUGAUAUAACAUGAGGAUCACCCAUGUACGAUCGAAUGAUCGUUUAGAAGGCGUCUGCU [E5/11-A3] (Eterna round: R97, puzzle: Exclusion 5)",,,,14.1 nM,15.5 nM,
"UGCAGACGAGGAUAUAGAUUUAGAUACAUGAGGAUCACCCAUGUAUACAUGUAUUUAGAUUUAGAAGGCGUCUGCA [E5/14-A2] (Eterna round: R97, puzzle: Exclusion 5)",,,,422 nM,886 nM,
"UGCAGACGAGGAUAUAGAUUUAGAUACAUGAGGAUCACCCAUGUAUACAUGUAUUUAGAUUUAGAAGGCGUCUGCU [E5/14-A3] (Eterna round: R97, puzzle: Exclusion 5)",,,,952 nM,2220 nM,
"UGCAGACGAGGAUAUAGAUUUAGAUACAUGAGGAUCACCCAUGUAUAGAUGUAUUUAGAUUUAGAAGGCGUCUGCU [E5/13-A4] (Eterna round: R97, puzzle: Exclusion 5)",,,,156 nM,176 nM,
"UGCAGACGAGGAUAUGAUUAAUAAUACAUGAGGAUCACCCAUGUAAUACUGAUCUAUGGAUCAGAAGGUGUCUGCU [E5/6-B3] (Eterna round: R97, puzzle: Exclusion 5)",,,,20.8 nM,24.1 nM,
